Where two headings read alike, the source gives them in different places. One block for each binder: values may come before it.
Tests used:
Test in all cases: SPR
TGF-β2 [1] = biological target: T1, TGF-β2
T1 sequence (P61812 303-414, species assumed, looked up): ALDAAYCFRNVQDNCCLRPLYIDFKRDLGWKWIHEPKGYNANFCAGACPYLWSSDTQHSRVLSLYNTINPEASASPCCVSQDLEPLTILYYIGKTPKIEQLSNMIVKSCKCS

TGF-β3 [2] = biological target: T2, TGF-β3
T2 sequence (P10600 301-412, species assumed, looked up): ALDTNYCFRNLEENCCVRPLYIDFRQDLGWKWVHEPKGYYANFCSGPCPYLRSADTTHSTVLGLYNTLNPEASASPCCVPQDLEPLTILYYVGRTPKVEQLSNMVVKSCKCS

TGF-β1 [3] = biological target: TGF-β1
TGF-β2 [4] = biological target: T1, TGF-β2; remark: listed apart in the source
TGF-β3 [5] = biological target: T2, TGF-β3; remark: listed apart in the source
TGF-β1 [6] = biological target: TGF-β1; remark: listed apart in the source

TGF-β1, sequence (P01137 279-390): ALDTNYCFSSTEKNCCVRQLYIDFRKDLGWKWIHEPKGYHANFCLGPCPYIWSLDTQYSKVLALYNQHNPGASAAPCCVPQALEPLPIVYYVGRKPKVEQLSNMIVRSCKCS

Kd (TGF-β2 [1]): 36 nM | Kd (TGF-β3 [2]): 143 nM | Kd (TGF-β1 [3]): 95 nM
B1: Recombinant soluble betaglycan (receptor)
chain: GPEPSTRCELSPINASHPVQALMESFTVLSGCASRGTTGLPREVHVLNLRSTDQGPGQRQREVTLHLNPIASVHTHHKPIVFLLNSPQPLVWHLKTERLAAGVPRLFLVSEGSVVQFPSGNFSLTAETEERNFPQENEHLLRWAQKEYGAVTSFTELKIARNIYIKVGEDQVFPPTCNIGKNFLSLNYLAEYLQPKAAEGCVLPSQPHEKEVHIIELITPSSNPYSAFQVDIIVDIRPAQEDPEVVKNLVLILKCKKSVNWVIKSFDVKGNLKVIAPNSIGFGKESERSMTMTKLVRDDIPSTQENLMKWALDNGYRPVTSYTMAPVANRFHLRLENNEEMRDEEVHTIPPELRILLDPDHPPALDNPLFPGEGSPNGGLPFPFPDIPRRGWKEGEDRIPRPKQPIVPSVQLLPDHREPEEVQGGVDIALSVKCDHEKMVVAVDKDSFQTNGYSGMELTLLDPSCKAKMNGTHFVLESPLNGCGTRHRRSTPDGVVYYNSIVVQAPSPGDSSGWPDGYEDLESGDNGFPGDGDEGETAPLSRAGVVVFNCSLRQLRNPSGFQGQLDGNATFNMELYNTDLFLVPSPGVFSVAENEHVYVEVSVTKADQDLGFAIQTCFLSPYSNPDRMSDYTIIENICPKDDSVKFYSSKRVHFPIPHAEVDKKRFSFLFKSVFNTSLLFLHCELTLCSRKKGSLKLPRCVTPDDACTSLDATMIWTMMQNKKTFTKPLAVVLQVDYKENVPSTKDSSPIPPPPPQIFHGLDTLTV
modifications: glycoprotein, devoid of GAG chains

Kd (TGF-β2 [1]): 2600 nM | Kd (TGF-β3 [2]): 5800 nM | Kd (TGF-β1 [3]): 9700 nM | Kd (TGF-β2 [4]): 2200 nM | Kd (TGF-β3 [5]): 4400 nM | Kd (TGF-β1 [6]): 2900 nM
B2: Sol Δ11, soluble betaglycan uromodulin-like domain (domain or fragment)
chain: GPEPSTRCELSPINASHPVQAIPRRGWKEGEDRIPRPKQPIVPSVQLLPDHREPEEVQGGVDIALSVKCDHEKMVVAVDKDSFQTNGYSGMELTLLDPSCKAKMNGTHFVLESPLNGCGTRHRRSTPDGVVYYNSIVVQAPSPGDSSGWPDGYEDLESGDNGFPGDGDEGETAPLSRAGVVVFNCSLRQLRNPSGFQGQLDGNATFNMELYNTDLFLVPSPGVFSVAENEHVYVEVSVTKADQDLGFAIQTCFLSPYSNPDRMSDYTIIENICPKDDSVKFYSSKRVHFPIPHAEVDKKRFSFLFKSVFNTSLLFLHCELTLCSRKKGSLKLPRCVTPDDACTSLDATMIWTMMQNKKTFTKPLAVVLQVDYKENVPSTKDSSPIPPPPPQIFH

Kd (TGF-β3 [2]): 5800 nM | Kd (TGF-β1 [3]): 1900 nM
B3: Sol Δ10, soluble betaglycan endoglin-like domain (domain or fragment)
chain: GPEPSTRCELSPINASHPVQALMESFTVLSGCASRGTTGLPREVHVLNLRSTDQGPGQRQREVTLHLNPIASVHTHHKPIVFLLNSPQPLVWHLKTERLAAGVPRLFLVSEGSVVQFPSGNFSLTAETEERNFPQENEHLLRWAQKEYGAVTSFTELKIARNIYIKVGEDQVFPPTCNIGKNFLSLNYLAEYLQPKAAEGCVLPSQPHEKEVHIIELITPSSNPYSAFQVDIIVDIRPAQEDPEVVKNLVLILKCKKSVNWVIKSFDVKGNLKVIAPNSIGFGKESERSMTMTKLVRDDIPSTQENLMKWALDNGYRPVTSYTMAPVANRFHLRLENNEEMRDEEVHTIPPELRILLDPDHPPALDNPLFPGEGSPNGGLPFPFPD
